The values that follow come from patent US20040137581A1 (Xencor, published 2004).

Experiment [1] deals with T1, type I interferon receptor (UniProt P17181 28-557; P48551 27-515, limits assumed).
T1 sequence (looked up) 1: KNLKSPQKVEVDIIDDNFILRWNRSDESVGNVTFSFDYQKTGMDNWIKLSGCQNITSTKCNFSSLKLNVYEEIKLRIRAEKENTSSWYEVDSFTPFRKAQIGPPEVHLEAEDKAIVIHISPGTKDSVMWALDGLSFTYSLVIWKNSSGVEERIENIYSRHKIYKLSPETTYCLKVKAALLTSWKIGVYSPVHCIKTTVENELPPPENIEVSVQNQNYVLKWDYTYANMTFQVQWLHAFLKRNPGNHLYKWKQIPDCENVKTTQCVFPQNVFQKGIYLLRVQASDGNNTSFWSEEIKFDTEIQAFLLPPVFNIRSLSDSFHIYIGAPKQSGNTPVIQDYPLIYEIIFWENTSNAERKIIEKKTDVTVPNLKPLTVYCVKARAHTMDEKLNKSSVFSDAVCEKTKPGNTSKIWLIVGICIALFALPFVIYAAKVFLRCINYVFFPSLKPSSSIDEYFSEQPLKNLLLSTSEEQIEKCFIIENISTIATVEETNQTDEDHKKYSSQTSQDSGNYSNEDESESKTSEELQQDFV
T1 sequence (looked up) 2: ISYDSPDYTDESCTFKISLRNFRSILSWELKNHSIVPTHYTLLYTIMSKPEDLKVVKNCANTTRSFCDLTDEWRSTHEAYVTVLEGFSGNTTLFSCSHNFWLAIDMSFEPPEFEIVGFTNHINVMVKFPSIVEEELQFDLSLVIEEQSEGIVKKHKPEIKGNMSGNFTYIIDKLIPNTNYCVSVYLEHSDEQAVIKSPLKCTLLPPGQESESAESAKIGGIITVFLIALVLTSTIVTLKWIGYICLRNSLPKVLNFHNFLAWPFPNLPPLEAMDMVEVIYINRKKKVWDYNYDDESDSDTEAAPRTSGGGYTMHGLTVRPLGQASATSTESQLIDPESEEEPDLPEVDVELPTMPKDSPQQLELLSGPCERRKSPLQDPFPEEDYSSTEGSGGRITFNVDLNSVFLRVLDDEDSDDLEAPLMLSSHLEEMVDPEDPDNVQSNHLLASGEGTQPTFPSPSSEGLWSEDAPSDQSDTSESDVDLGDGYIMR
Kind of experiment: cell-based or functional assay.

The target in experiment [2] is T1, type I interferon receptor. Kind of experiment: cell-based or functional assay. The source holds these as a separate data set.

Read-outs that look alike come from different tables or passages of the source.

B1: IFN1_1 (ligand)
chain: MGSSHHHHHHSSGLVPRGSHMSYNLLGFLQRSSNFQSQKLLWQLNGRLEYCLKDRMNFDIPEEIKQLQQFQKEDAALTIYEMLQNIFAIFRQDSSSTGWNETIVENLLANVYHQINHLKTVLEEKLEKEDFTRGKLMSSLHLKRYYGRILHYLKAKEYSHCAWTIVRVEILRNFYFINRLTGYLRN
With B1, the “EC50, ISRE-luciferase reporter assay in 293T cells” value amounted to 1.9 ng/mL in experiment [1] and 5.31 ng/mL in experiment [2]. Further, the “EC50 wt/EC50 var, ISRE-luciferase reporter assay in 293T cells” value (“EC50 wt/EC50 var” below) in experiment [1] and in experiment [2] was 1 ratio throughout.

B2: IFB1_23 (ligand)
chain: MGSSHHHHHHSSGLVPRGSHMSYNQLGELQRSSNFQSQKLLWQLNGRLEYCLKDRMNFDIPEEIKQLQQFQKEDAALTIYEMLQNIFAIFRQDSSSTGWNETIVENLLANVYHQINHLKTVLEEKLEKEDFTRGKEMSSLHLKRYYGRILHYLKAKEYSHCAWTIVRVEILRNFYFINRLTGYLRN
B2: in experiment [2], the “EC50, ISRE-luciferase reporter assay in 293T cells” value is 0.277 log ng/ml and the “EC50 wt/EC50 var” value stood at 19.2 ratio.

B3: IFB_GM2 (ligand)
chain: MGSSHHHHHHSSGLVPRGSHMSYNLLGFLQRSSNFQSQKLLWQLNGRLEYCLKDRMNFDIPEEIKQSQQSQKEDAALTIYEMLQNIFAIFRQDSSSTGWNETIVENLLANVYHQINHLKTVLEEKSEKEDSTRGKSMSSSHLKRYYGRILHYLKAKEYSHCAWTIVRVEILRNFYFINRLTGYLRN
Consider B3, for which, in experiment [1], the “EC50, ISRE-luciferase reporter assay in 293T cells” value stood at 130 ng/mL and the “EC50 wt/EC50 var” value was determined as 0.015 ratio.

B4: IFB1_7 (ligand)
chain: MGSSHHHHHHSSGLVPRGSHMSYNQLGELQRSSNFQSQKLLWQLNGRLEYCLKDRMNFDIPEEIKQLQQFQKEDAALTIYEMLQNIFAIFRQDSSSTGWNETIVENLLANVYHQINHLKTVLEEKLEKEDFTRGKLMSSLHLKRYYGRILHYLKAKEYSHCAWTIVRVEILRNFYFINRLTGYLRN
Turning to B4, in experiment [1], the “EC50, ISRE-luciferase reporter assay in 293T cells” value amounted to 0.074 ng/mL and the “EC50 wt/EC50 var” value is 25.7 ratio. In addition, in experiment [2], the “EC50, ISRE-luciferase reporter assay in 293T cells” value was determined as 0.179 log ng/ml and the “EC50 wt/EC50 var” value came out at 29.6 ratio.

B5: IFB1_64 (ligand)
chain: MGSSHHHHHHSSGLVPRGSHMSYNQLGELQRSSNFQSQKLLWQLNGRLEYCLKDRMNFDIPEEIKQKQQFQKEDAALTIYEMLQNIFAIFRQDSSSTGWNETIVENLLANVYHQINHLKTVLEEKLEKEDNTRGKEMSSRHLKRYYGRILHYLKAKEYSHCAWTIVRVEILRNFYFINRLTGYLRN
B5: in experiment [2], the “EC50, ISRE-luciferase reporter assay in 293T cells” value worked out at 0.24 log ng/ml and the “EC50 wt/EC50 var” value is 22.1 ratio.

B6: IFB1_36 (ligand)
chain: MGSSHHHHHHSSGLVPRGSHMSYNLLGELQRSSNFQSQKLLWQLNGRLEYCLKDRMNFDIPEEIKQLQQFQKEDAALTIYEMLQNIFAIFRQDSSSTGWNETIVENLLANVYHQINHLKTVLEEKLEKEDNTRGKEMSSLHLKRYYGRILHYLKAKEYSHCAWTIVRVEILRNFYFINRLTGYLRN
Turning to B6, in experiment [2], the “EC50, ISRE-luciferase reporter assay in 293T cells” value stood at 0.294 log ng/ml and the “EC50 wt/EC50 var” value came out at 18 ratio.

B7: IFB1_39 (ligand)
chain: MGSSHHHHHHSSGLVPRGSHMSYNQLGELQRSSNFQSQKLLWQLNGRLEYCLKDRMNFDIPEEIKQLQQFQKEDAALTIYEMLQNIFAIFRQDSSSTGWNETIVENLLANVYHQINHLKTVLEEKLEKEDNTRGKEMSSLHLKRYYGRILHYLKAKEYSHCAWTIVRVEILRNFYFINRLTGYLRN
On to B7, for which, in experiment [2], the “EC50, ISRE-luciferase reporter assay in 293T cells” value is 0.193 log ng/ml and the “EC50 wt/EC50 var” value was 27.5 ratio.

B8: IFB1_2 (ligand)
chain: MGSSHHHHHHSSGLVPRGSHMSYNQLGFLQRSSNFQSQKLLWQLNGRLEYCLKDRMNFDIPEEIKQLQQFQKEDAALTIYEMLQNIFAIFRQDSSSTGWNETIVENLLANVYHQINHLKTVLEEKLEKEDFTRGKLMSSLHLKRYYGRILHYLKAKEYSHCAWTIVRVEILRNFYFINRLTGYLRN
B8: in experiment [2], the “EC50, ISRE-luciferase reporter assay in 293T cells” value stood at 0.428 log ng/ml and the “EC50 wt/EC50 var” value was determined as 12.4 ratio.

B9: IFB1_15 (ligand)
chain: MGSSHHHHHHSSGLVPRGSHMSYNQLGELQRSSNFQSQKLLWQLNGRLEYCLKDRMNFDIPEEIKQLQQFQKEDAALTIYEMLQNIFAIFRQDSSSTGWNETIVENLLANVYHQINHLKTVLEEKLEKEDNTRGKLMSSLHLKRYYGRILHYLKAKEYSHCAWTIVRVEILRNFYFINRLTGYLRN
For B9, in experiment [2], the “EC50, ISRE-luciferase reporter assay in 293T cells” value amounted to 0.319 log ng/ml and the “EC50 wt/EC50 var” value came out at 16.6 ratio.
